According to patent publication US20050282743A1, “Molecular interactions in cells” (Arbor Vita Corporation, priority 2001, published 2005):

T1: GST-FLJ 10324 PDZ domain 1 [GST: P08515]
T1 chain: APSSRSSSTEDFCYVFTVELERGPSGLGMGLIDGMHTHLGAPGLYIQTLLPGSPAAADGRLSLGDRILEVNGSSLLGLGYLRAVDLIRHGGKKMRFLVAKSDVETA

T2: GST-Syntrophin gamma 1 PDZ domain 1 (Homo sapiens (Human)), Q9NSN8
T2 chain: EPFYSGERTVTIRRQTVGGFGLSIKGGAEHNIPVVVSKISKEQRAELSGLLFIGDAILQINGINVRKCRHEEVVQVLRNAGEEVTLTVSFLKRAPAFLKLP

T3: GST-KIAA0807(S) PDZ domain 1 (Homo sapiens (Human)), Q6P0Q8
T3 chain: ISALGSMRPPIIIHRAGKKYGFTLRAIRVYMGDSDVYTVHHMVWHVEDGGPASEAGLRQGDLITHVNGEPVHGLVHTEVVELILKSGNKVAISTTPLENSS

T4: GST-MINT1 PDZ domain 2 (Mus musculus (Mouse)), B2RUJ5
T4 chain: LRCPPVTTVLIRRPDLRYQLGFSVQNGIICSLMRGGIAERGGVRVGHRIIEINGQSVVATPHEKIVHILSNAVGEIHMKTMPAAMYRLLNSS

T5: GST-PTPL1 PDZ domain 2 (Homo sapiens (Human)), Q12923
T5 chain: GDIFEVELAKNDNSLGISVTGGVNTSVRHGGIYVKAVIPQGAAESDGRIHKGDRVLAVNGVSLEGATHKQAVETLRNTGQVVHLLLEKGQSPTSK

T6: GST-LIM Mystique PDZ domain 1 (Homo sapiens (Human)), Q96JY6
T6 chain: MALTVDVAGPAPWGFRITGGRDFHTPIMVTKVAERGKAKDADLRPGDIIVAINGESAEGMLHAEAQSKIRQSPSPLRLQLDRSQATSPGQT

T7: GST-MINT1 PDZ domains 1, 2, Q02410
T7 chain: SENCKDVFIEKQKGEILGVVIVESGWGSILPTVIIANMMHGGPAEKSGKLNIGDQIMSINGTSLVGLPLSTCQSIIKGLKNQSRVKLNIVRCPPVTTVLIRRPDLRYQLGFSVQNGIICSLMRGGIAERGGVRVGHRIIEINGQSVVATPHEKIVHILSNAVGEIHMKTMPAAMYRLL

T8: GST-AIPC PDZ domain 1 (Homo sapiens (Human)), O15018
T8 chain: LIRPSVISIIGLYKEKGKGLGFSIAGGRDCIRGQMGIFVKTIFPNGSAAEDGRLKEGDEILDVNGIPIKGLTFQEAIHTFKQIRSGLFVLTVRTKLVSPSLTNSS

T9: GST-APXL-1 PDZ domain 1 (Homo sapiens (Human)), Q13796
T9 chain: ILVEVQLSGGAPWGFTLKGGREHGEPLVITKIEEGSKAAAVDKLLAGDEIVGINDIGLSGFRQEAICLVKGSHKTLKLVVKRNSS

T10: GST-LIM-RIL PDZ domain 1 (Homo sapiens (Human)), P50479
T10 chain: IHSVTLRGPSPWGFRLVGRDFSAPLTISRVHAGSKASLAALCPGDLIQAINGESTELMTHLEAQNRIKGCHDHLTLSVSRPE

T11: GST-KIAA0382 PDZ domain 1 (Canis lupus familiaris (Dog) (Canis familiaris)), A0A8I3
T11 chain: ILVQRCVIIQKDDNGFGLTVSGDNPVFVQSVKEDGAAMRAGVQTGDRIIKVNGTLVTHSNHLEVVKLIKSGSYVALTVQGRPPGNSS

T12: GST-TIP1 PDZ domain 1 (Table 9 insert) (Homo sapiens (Human)), O14907
T12 chain: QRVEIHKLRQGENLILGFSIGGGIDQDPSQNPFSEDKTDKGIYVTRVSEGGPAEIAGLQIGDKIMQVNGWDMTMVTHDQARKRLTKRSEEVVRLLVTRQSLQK

T13: GST-Outer Membrane PDZ domain 1 (Homo sapiens (Human)), P57105
T13 chain: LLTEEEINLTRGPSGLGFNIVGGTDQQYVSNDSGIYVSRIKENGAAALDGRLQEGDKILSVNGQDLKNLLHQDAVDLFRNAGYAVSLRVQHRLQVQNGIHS

T14: GST-INADL PDZ domain 3 (Homo sapiens (Human)), Q8NI35
T14 chain: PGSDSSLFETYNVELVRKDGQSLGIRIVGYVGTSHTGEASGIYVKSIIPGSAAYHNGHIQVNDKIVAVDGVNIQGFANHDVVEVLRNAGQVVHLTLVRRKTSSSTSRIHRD

T15: GST-FLJ00011 PDZ domain 1 (Homo sapiens (Human)), Q9H5P4
T15 chain: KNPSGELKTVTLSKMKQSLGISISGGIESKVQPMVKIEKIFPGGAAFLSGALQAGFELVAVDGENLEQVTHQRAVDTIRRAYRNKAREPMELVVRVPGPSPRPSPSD

T16: GST-KIAA1526 PDZ domain 1 (Homo sapiens (Human)), Q9P202
T16 chain: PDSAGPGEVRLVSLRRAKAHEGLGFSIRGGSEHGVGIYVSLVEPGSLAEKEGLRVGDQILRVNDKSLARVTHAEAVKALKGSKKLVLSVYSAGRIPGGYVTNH

B1: AdenoE4 typ9 (peptide)
peptide: VGTLLLERVIFPSVKIATLV
modifications: not checked
B2: CSPG4 (chondroitin sulfae proteoglycan 4, melanoma-associated) (peptide)
peptide: ELLQFCRTPNPALKNGQYWV
modifications: not checked
B3: alpha-2A Adrenergic receptor (peptide)
peptide: HDFRRAFKKILARGDRKRIV
modifications: not checked
B4: a-actinin 2 (peptide)
peptide: VPGALDYAAFSSALYGESDL
modifications: not checked
B5: NMDA Glutamate Receptor 2C (cysteine-free) (peptide)
peptide: TQGFPGPATWRRISSLESEV
modifications: not checked
B6: KIA 1481 (peptide)
peptide: PIPAGGCTFSGIFPTLTSPL
modifications: not checked

Target: T1, GST-FLJ 10324 PDZ domain 1 [GST: P08515]
Assay: G' assay
Also: key of the grades not given here.

Binder	Classification
B1	3 A450 class
B2	5 A450 class
B3	1 A450 class

Target: T2, GST-Syntrophin gamma 1 PDZ domain 1 …
Assay: G' assay

Binder	Classification
B4	1 A450 class
B3	2 A450 class
B5	4 A450 class

Target: T3, GST-KIAA0807(S) PDZ domain 1 (Homo …)
Assay: G' assay

Binder	Classification
B4	5 A450 class
B1	3 A450 class
B2	1 A450 class
B6	5 A450 class
B3	1 A450 class
B5	5 A450 class

Target: T4, GST-MINT1 PDZ domain 2 (Mus musculus …)
Assay: G' assay

Binder	Classification
B4	1 A450 class
B1	2 A450 class
B2	5 A450 class
B6	3 A450 class
B5	1 A450 class

Target: T5, GST-PTPL1 PDZ domain 2 (Homo sapiens …)
Assay: G' assay

Binder	Classification
B4	1 A450 class
B1	3 A450 class
B3	2 A450 class
B5	5 A450 class

Target: T6, GST-LIM Mystique PDZ domain 1 (Homo …)
Assay: G' assay

Binder	Classification
B4	5 A450 class
B2	2 A450 class
B3	1 A450 class
B5	4 A450 class

Target: T7, GST-MINT1 PDZ domains 1, 2, Q02410
Assay: G' assay

Binder	Classification
B4	1 A450 class
B1	2 A450 class
B2	5 A450 class
B6	3 A450 class
B5	1 A450 class

Target: T8, GST-AIPC PDZ domain 1 (Homo sapiens …)
Assay: G' assay

Binder	Classification
B4	2 A450 class
B2	5 A450 class
B3	2 A450 class
B5	3 A450 class

Target: T9, GST-APXL-1 PDZ domain 1 (Homo sapiens …)
Assay: G' assay

Binder	Classification
B4	5 A450 class
B2	3 A450 class
B6	5 A450 class
B3	1 A450 class
B5	1 A450 class

Target: T10, GST-LIM-RIL PDZ domain 1 (Homo sapiens …)
Assay: G' assay

Binder	Classification
B4	5 A450 class
B2	2 A450 class
B5	5 A450 class

The binders below were run against GST-BAI-1 Associated Protein PDZ domain 6 (Homo sapiens (Human)), Q96QZ7 (assay: G' assay).
Sequence of GST-BAI-1 Associated Protein PDZ domain 6 (Homo sapiens (Human)), Q96QZ7 (Q96QZ7 1143-1233): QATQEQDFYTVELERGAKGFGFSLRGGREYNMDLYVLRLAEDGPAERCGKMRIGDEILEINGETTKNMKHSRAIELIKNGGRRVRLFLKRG

Binder	Classification
B4	5 A450 class
B1	1 A450 class
B2	4 A450 class
B6	2 A450 class
B3	3 A450 class
B5	2 A450 class

Target: T11, GST-KIAA0382 PDZ domain 1 (Canis lupus …)
Assay: G' assay

Binder	Classification
B1	1 A450 class
B6	5 A450 class
B5	1 A450 class

The binders below were run against GST-BAI-1 Associated Protein PDZ domain 2 (Mus musculus (Mouse)), Q6RHR9 (assay: G' assay).
Sequence of GST-BAI-1 Associated Protein PDZ domain 2 (Mus musculus (Mouse)), Q6RHR9 (Q6RHR9 455-558): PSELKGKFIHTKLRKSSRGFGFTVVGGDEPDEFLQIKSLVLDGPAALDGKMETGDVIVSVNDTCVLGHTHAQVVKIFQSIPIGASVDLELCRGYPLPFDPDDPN

Binder	Classification
B4	1 A450 class
B1	5 A450 class
B2	2 A450 class
B6	2 A450 class
B5	4 A450 class

Target: T12, GST-TIP1 PDZ domain 1 (Table 9 insert) …
Assay: G' assay

Binder	Classification
B4	5 A450 class
B2	1 A450 class
B6	2 A450 class
B5	5 A450 class

The binders below were run against GST-Atrophin-1 Interacting Protein PDZ domain 3 (Rattus norvegicus (Rat)), O88382 (assay: G' assay).
Sequence of GST-Atrophin-1 Interacting Protein PDZ domain 3 (Rattus norvegicus (Rat)), O88382 (O88382 774-865, tags or fused parts left off): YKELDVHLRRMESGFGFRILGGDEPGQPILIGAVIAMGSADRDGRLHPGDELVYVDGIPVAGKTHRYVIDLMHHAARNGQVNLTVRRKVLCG

Binder	Classification
B1	4 A450 class
B2	2 A450 class
B5	2 A450 class

Target: T13, GST-Outer Membrane PDZ domain 1 (Homo …)
Assay: G' assay

Binder	Classification
B4	1 A450 class
B1	5 A450 class
B2	1 A450 class
B5	5 A450 class

Target: T14, GST-INADL PDZ domain 3 (Homo sapiens …)
Assay: G' assay

Binder	Classification
B4	1 A450 class
B2	3 A450 class
B3	2 A450 class
B5	2 A450 class

Target: T15, GST-FLJ00011 PDZ domain 1 (Homo sapiens …)
Assay: G' assay

Binder	Classification
B1	1 A450 class
B6	2 A450 class
B5	2 A450 class

Target: T16, GST-KIAA1526 PDZ domain 1 (Homo sapiens …)
Assay: G' assay

Binder	Classification
B4	1 A450 class
B6	2 A450 class
B3	4 A450 class
B5	3 A450 class

Each binder was assayed against GST-PAR3 PDZ domain 3 (Homo sapiens (Human)), Q8TEW0 (assay: G' assay).
Sequence of GST-PAR3 PDZ domain 3 (Homo sapiens (Human)), Q8TEW0 (Q8TEW0 579-681): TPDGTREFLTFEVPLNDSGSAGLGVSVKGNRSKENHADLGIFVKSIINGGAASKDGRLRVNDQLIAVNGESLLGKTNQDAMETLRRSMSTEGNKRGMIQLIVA

Binder	Classification
B4	1 A450 class
B2	3 A450 class
B3	2 A450 class
